We go through 5 molecules from article PMC3486911 (PLoS Pathogens, 2012).

In assay [1] the target is Factor H binding protein, variant group 3 (V3.p28), wild type (UniProt E6MV22). The assay is described as follows: SPR. In general terms: In SPR one partner is held on a chip, and binding of the other changes the refractive index at the surface.
Assay [2] concerns the target Factor H binding protein, variant group 2 (V2.p21), wild type (UniProt E6MV22). The assay is described as follows: SPR.
Assay [3] has as its target Factor H binding protein, variant group 1 (V1.p1), wild type (Neisseria meningitidis) (UniProt Q9JXV4). The assay is described as follows: SPR.
Assay [4] deals with V3 fHbp with Val272 replaced by Ala (Neisseria meningitidis). The assay is described as follows: SPR.
In assay [5] the target is V2 fHbp with Ala at position 157 (Neisseria meningitidis) (UniProt E6MV22). The assay is described as follows: SPR.
The target of assay [6] is V2 fHbp with Val272 replaced by Ala (Neisseria meningitidis). The assay is described as follows: SPR.
Assay [7] concerns the target V2 fHbp with Glu313 replaced by Ala (Neisseria meningitidis). In words: SPR.
Assay [8] deals with V2 fHbp with Leu195 replaced by Ala (Neisseria meningitidis). The assay is described as follows: SPR.
In assay [9] the target is V1 fHbp with Val272 replaced by Ala (Neisseria meningitidis). The assay is described as follows: SPR.
Assay [10] concerns the target Factor H binding protein, variant group 2 (V2.p21), wild type (Neisseria meningitidis) (UniProt E6MV22). The assay is described as follows: SPR.
The target in assay [11] is V3 fHbp P106A (Neisseria meningitidis). In words: SPR.
The target of assay [12] is V2 fHbp Thr304Glu (Neisseria meningitidis). The assay is described as follows: SPR.
The target in assay [13] is V2 fHbp Thr304Ala (Neisseria meningitidis). In words: SPR.
Assay [14] addresses Factor H binding protein, variant group 3 (V3.p28), wild type (Neisseria meningitidis) (UniProt E6MV22). In words: SPR.
Assay [15] concerns the target V1 fHbp I311A (Neisseria meningitidis). In words: SPR.
Assay [16] deals with V1 fHbp E283A (Neisseria meningitidis). The assay is described as follows: SPR.
Assay [17] deals with V2 fHbp Glu283Ala (Neisseria meningitidis). In words: SPR.
Assay [18] deals with T1, Factor H binding protein, variant group 1 (V1.p1), wild type (Neisseria meningitidis, UniProt Q9JXV4 20-274).
T1 construct: also called V1 fHbp; fHbp
T1 sequence: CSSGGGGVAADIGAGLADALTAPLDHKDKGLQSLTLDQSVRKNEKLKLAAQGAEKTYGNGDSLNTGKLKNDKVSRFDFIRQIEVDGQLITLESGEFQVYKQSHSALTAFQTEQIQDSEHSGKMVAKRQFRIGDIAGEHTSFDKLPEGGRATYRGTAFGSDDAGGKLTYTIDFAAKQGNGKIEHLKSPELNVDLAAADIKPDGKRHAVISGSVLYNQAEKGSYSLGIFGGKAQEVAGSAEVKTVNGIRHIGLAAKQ
In words: SPR. The conditions noted are these: both partners purified.

Assay [19] has as its target T1, Factor H binding protein, variant group …. In words: not stated; dose response curve of mfH67 binding V1 fHbp (Fig. S2). As to conditions: both partners purified.

The term Kd denotes the equilibrium constant for the complex coming apart. Low readings indicate a tighter complex, high ones a looser complex. In the case of “human factor H CCP domains 6 and 7 K351R; Y352K”, the Kd turned out to be 33000 nM in assay [1] and 44000 nM in assay [2].

In assay [3], “human fH67 with His337 and Arg341 replaced by the murine residues (domain or fragment)” came in with a dissociation constant (Kd) of 7000 nM.

On to “human factor H CCP domains 6 and 7 (domain or fragment)”, for which the fold reduction in binding relative to wild type in assay [4], in assay [6], in assay [7], in assay [8] and in assay [9] was above 5 fold each time. In assay [5], the fold increase in binding relative to wild type was 5 fold. The Kd stood at 2.2 nM in [3], 1.9 nM in assay [10], 2.8 nM in assay [14] and 1300 nM in [15]. For the same molecule, in [11], the fold increase in strength of binding relative to wild type stood at 100 fold. The fold increase in KD relative to wild type in assay [12] came out at 200 fold; in [13], 10 fold; in assay [16], 7 fold; in [17] it was 40 fold.

B1: human fH67 with Lys351 and Tyr352 replaced by the murine residues (domain or fragment)
chain: TLKPCDYPDIKHGGLYHENMRRPYFPVAVGRKYSYYCDEHFETPSGSYWDHIHCTQDGWSPAVPCLRKCYFPYLENGYNQNHGRKFVQGKSIDVACHPGYALPKAQTTVTCMENGWSPTPRCI
B1: the dissociation constant (Kd) in assay [18] came to 2800 ± 500 nM.

B2: murine factor H CCP domains 6 and 7 (domain or fragment)
chain: LKPCEFPQFKYGRLYYEESLRPNFPVSIGNKYSYKCDNGFSPPSGYSWDYLRCTAQGWEPEVPCVRKCVFHYVENGDSAYWEKVYVQGQSLKVQCYNGYSLQNGQDTMTCTENGWSPPPKCI
notes: also called mfH67; mfH; source: cloned into pET-15b; expressed and purified using the method described previously [40]
For B2, the “fold higher KD than hfH” value in assay [19] is above 10000 fold.
